This is an account of results in paper PMC12664034, “The E3 ubiquitin ligase SPRYD3-MYCBP2(PAM) regulates mitotic cell fate and ubiquitination of USP11 to control spindle assembly” (The Journal of Biological Chemistry, 2025).

The target in the test is T1, GST-USP11 (UniProt P51784 1-963).
T1 construct: USP11; pGEX4T1-GST-USP11; made by subcloning; the bought USP11 plasmid is Addgene 22566; also called recombinant USP11; source: E. coli Rosetta (DE3), purified (Glutathione Sepharose 4B)
In words: pull-down; MBP pull-down: 10 μg MBP-SPRYD3 (or equimolar MBP) mixed with 10 μg GST-tagged protein in NP-40 buffer, 4 °C 1 h; Amylose resin 2 h at 4 °C; five washes; Western blot. Conditions: both partners purified.

T1 sequence (P51784 whole entry): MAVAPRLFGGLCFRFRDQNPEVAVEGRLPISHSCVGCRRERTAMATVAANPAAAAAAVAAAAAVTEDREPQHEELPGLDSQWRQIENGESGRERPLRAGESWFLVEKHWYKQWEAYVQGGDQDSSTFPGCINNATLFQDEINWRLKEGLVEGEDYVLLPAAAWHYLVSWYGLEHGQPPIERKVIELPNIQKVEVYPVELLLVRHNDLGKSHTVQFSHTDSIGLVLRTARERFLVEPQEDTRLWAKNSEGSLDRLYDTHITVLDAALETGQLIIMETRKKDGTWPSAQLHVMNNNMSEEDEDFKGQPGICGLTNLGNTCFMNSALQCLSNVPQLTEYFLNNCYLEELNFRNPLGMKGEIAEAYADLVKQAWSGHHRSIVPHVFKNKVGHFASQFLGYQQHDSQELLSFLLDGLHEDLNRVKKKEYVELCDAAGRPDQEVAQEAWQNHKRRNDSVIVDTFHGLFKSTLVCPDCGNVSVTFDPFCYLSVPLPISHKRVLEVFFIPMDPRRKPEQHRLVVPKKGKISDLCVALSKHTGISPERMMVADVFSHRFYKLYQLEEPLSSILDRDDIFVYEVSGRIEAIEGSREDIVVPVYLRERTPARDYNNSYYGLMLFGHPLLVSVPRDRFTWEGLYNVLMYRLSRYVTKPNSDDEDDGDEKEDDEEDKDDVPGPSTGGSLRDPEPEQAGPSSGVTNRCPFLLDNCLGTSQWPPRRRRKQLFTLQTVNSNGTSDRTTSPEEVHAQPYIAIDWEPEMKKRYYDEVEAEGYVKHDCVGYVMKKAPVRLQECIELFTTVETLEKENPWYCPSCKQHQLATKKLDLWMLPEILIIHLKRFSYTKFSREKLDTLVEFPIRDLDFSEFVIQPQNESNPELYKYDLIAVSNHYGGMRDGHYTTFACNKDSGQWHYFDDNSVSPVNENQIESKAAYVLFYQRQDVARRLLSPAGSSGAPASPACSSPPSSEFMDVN

B1: MBP-SPRYD3 (natural protein, UniProt Q8NCJ5 1-442, looked up)
chain: MRRTRRPRFVLMNKMDDLNLHYRFLNWRRRIREIREVRAFRYQERFKHILVDGDTLSYHGNSGEVGCYVASRPLTKDSNYFEVSIVDSGVRGTIAVGLVPQYYSLDHQPGWLPDSVAYHADDGKLYNGRAKGRQFGSKCNSGDRIGCGIEPVSFDVQTAQIFFTKNGKRVGSTIMPMSPDGLFPAVGMHSLGEEVRLHLNAELGREDDSVMMVDSYEDEWGRLHDVRVCGTLLEYLGKGKSIVDVGLAQARHPLSTRSHYFEVEIVDPGEKCYIALGLARKDYPKNRHPGWSRGSVAYHADDGKIFHGSGVGDPFGPRCYKGDIMGCGIMFPRDYILDSEGDSDDSCDTVILSPTARAVRNVRNVMYLHQEGEEEEEEEEEEEDGEEIEPEHEGRKVVVFFTRNGKIIGKKDAVVPSGGFFPTIGMLSCGEKVKVDLHPLSG
notes: SPRYD3; pMal-c2-MBP-SPRYD3; also called recombinant SPRYD3; source: E. coli Rosetta (DE3), purified (Amylose resin)
Regarding B1, the binding result is given as “binds”.
